Data reported in patent US20160257957.

Columns and labels:
[1] = target: T1, Arc C-terminal protein (132-396 a.a.), Q63053
T1 chain: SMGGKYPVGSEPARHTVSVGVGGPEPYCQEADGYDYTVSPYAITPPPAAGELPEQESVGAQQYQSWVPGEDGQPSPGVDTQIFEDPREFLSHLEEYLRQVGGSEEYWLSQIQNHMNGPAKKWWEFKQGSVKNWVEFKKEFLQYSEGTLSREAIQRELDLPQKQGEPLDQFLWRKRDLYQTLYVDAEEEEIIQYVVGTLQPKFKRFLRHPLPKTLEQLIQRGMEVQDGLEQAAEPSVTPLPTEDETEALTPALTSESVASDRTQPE

[2] = target: T2, HHR23A (recombinant, wild type), P54725
T2 chain: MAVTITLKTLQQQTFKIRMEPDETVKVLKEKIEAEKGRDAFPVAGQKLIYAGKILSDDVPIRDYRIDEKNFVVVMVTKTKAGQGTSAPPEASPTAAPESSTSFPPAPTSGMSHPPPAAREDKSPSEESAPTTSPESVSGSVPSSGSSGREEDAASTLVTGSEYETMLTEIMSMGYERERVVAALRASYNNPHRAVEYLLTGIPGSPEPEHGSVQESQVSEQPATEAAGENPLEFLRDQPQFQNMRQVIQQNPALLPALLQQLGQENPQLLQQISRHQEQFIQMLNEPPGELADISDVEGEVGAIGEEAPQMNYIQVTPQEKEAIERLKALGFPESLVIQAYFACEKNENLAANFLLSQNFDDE

B1: Ube3A (recombinant) (protein)
chain: SGEPQSDDIEASRMKRAAAKHLIERYYHQLTEGCGNEACTNEFCASCPTFLRMDNNAAAIKALELYKINAKLCDPHPSKKGASSAYLENSKGAPNNSCSEIKMNKKGARIDFKDVTYLTEEKVYEILELCREREDYSPLIRVIGRVFSSAEALVQSFRKVKQHTKEELKSLQAKDEDKDEDEKEKAACSAAAMEEDSEASSSRIGDSSQGDNNLQKLGPDDVSVDIDAIRRVYTRLLSNEKIETAFLNALVYLSPNVECDLTYHNVYSRDPNYLNLFIIVMENRNLHSPEYLEMALPLFCKAMSKLPLAAQGKLIRLWSKYNADQIRRMMETFQQLITYKVISNEFNSRNLVNDDDAIVAASKCLKMVYYANVVGGEVDTNHNEEDDEEPIPESSELTLQELLGEERRNKKGPRVDPLETELGVKTLDCRKPLIPFEEFINEPLNEVLEMDKDYTFFKVETENKFSFMTCPFILNAVTKNLGLYYDNRIRMYSERRITVLYSLVQGQQLNPYLRLKVRRDHIIDDALVRLEMIAMENPADLKKQLYVEFEGEQGVDEGGVSKEFFQLVVEEIFNPDIGMFTYDESTKLFWFNPSSFETEGQFTLIGIVLGLAIYNNCILDVHFPMVVYRKLMGKKGTFRDLGDSHPVLYQSLKDLLEYEGNVEDDMMITFQISQTDLFGNPMMYDLKENGDKIPITNENRKEFVNLYSDYILNKSVEKQFKAFRRGFHMVTNESPLKYLFRPEEIELLICGSRNLDFQALEETTEYDGGYTRDSVLIREFWEIVHSFTDEQKRLFLQFTTGTDRAPVGGLGKLKMIIAKNGPDTERLPTSHTCFNVLLLPEYSSKEKLKERLLKAITYAKGFGML
in vitro ubiquitination assay using purified recombinant proteins [1]: Ube3A ubiquitinated Arc in vitro | ubiquitination of HHR23A by Ube3A [2]: this domain is required for Ube3A to ubiquitinate HHR23A
